Reference: patent publication US20250163119A1, “COMPOUNDS FOR THE TREATMENT OF DIABETES OR OBESITY” (Eli Lilly and Company, priority 2023, published 2025)
*1 amine or outer side, *2 acyl side, *3 side chain or, on linkers, in order; H or OH if unused. Where no end group is shown, it is not given here. Side-chain parts run from the residue outwards. [ ]: non-standard residue; d: D form. The star is where a group is joined. C20 diacid = O=C(O)CCCCCCCCCCCCCCCCCCC(=O)*; γGlu = O=C(O)[C@H](CCC(=O)[*:2])N[*:1]; εLys = N[C@@H](CCCCN[*:1])C(=O)[*:2]; NMeI = CC[C@H](C)[C@H](NC)C(=O)O; pGlu = O=C1CC[C@@H](C(=O)O)N1; αMeL = CC(C)C[C@](C)(N)C(=O)O; AEEA = NCCOCCOCC(=O)O; Aib = CC(C)(N)C(=O)O

T1: human corticotropin-releasing hormone receptor 1 (CRHR1) (human, UniProt P34998 24-415)
T1 sequence (looked up): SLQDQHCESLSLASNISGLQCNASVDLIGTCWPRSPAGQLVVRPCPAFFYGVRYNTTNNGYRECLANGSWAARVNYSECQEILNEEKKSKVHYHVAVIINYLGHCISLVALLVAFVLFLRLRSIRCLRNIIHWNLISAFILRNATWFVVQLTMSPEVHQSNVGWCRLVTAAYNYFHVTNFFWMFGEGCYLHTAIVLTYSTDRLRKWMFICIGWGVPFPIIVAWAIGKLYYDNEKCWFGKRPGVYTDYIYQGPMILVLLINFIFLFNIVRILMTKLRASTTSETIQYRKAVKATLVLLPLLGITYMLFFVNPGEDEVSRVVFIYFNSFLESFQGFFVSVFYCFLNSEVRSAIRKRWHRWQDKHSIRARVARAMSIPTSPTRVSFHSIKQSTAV


Tests used:
Assay in all cases: cell-based or functional assay
[1] = biological target: T1, human corticotropin-releasing hormone …
[2] = biological target: rat CRHR2 (endogenous on A7r5 cells) (rat, UniProt P47866 20-411)
[3] = biological target: T1, human corticotropin-releasing hormone …; remark: listed apart in the source

Chain of rat CRHR2 (endogenous on A7r5 cells) (P47866 20-411): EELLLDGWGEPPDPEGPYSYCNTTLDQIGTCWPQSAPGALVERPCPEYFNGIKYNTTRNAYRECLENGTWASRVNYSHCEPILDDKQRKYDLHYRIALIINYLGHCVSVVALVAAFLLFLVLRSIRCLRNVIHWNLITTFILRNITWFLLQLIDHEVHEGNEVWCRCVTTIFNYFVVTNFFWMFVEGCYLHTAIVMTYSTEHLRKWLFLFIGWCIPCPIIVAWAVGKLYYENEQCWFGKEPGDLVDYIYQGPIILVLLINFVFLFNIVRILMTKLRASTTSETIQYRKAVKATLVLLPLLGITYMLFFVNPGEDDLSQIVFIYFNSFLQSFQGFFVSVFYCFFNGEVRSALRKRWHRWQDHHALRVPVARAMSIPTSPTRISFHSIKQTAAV

| Binder | hCRHR1 cAMP EC50 [1] [nM] | A7r5 cAMP EC50 [2] [nM] | Y79 cAMP EC50 [3] [nM] |
| --- | --- | --- | --- |
| Ac-GSPSIVTS[αMeL]DVPT[Aib][αMeL]LQKILEQERAEKARQQAK([γGlu-AEEA-εLys-C20 diacid])EAAEILAQV-NH2 [polypeptide comprising SEQ ID NO:1] | > 10000 | 0.157 | 1400 |
| [pGlu]GSPSGIVTS[αMeL]DVPT[Aib][αMeL]LQKILEQERAEKARQQAK([γGlu-AEEA-εLys-C20 diacid])EAAEILAQV-NH2 [polypeptide comprising SEQ ID NO:22] | > 10000 | 0.314 | 2400 |

The next lines start with the values.

| hCRHR1 cAMP EC50 [1] [nM] | A7r5 cAMP EC50 [2] [nM] | Y79 cAMP EC50 [3] [nM] | Binder |
| --- | --- | --- | --- |
| > 10000 | 0.967 | > 10000 | [NMeI]VTSLDVPIG[αMeL]LQKLLEQERAEKARQQAKEAAEILAQV-NH2 (not fully specified (residue 29)) [polypeptide comprising SEQ ID NO:50] |
| > 10000 | 0.123 | 1000 | Ac-IVTS[αMeL]D[dV]PTG[αMeL]LQIKLEQERAEKARQQAKENTEILAQV-NH2 (not fully specified (residue 29)) [polypeptide comprising SEQ ID NO:29] |
| > 10000 | 0.112 | 620 | [γGlu]GSPSIVTS[αMeL]DVPT[Aib][αMeL]LQKILEQERAEKARQQATEAAEILAQV-NH2 (not fully specified (residue 1, N-terminus); also: Glu1 linked through its gamma-carboxyl to Gly2) [polypeptide comprising SEQ ID NO:25] |
